Experimental findings from patent publication US20230009539A1 (CLEVELAND CLINIC FOUNDATION, published 2023) are described below.

This assay addresses T1, IKKi (endogenous, MEFs) (mouse (MEFs), UniProt Q9R0T8 1-717).
T1 sequence (looked up): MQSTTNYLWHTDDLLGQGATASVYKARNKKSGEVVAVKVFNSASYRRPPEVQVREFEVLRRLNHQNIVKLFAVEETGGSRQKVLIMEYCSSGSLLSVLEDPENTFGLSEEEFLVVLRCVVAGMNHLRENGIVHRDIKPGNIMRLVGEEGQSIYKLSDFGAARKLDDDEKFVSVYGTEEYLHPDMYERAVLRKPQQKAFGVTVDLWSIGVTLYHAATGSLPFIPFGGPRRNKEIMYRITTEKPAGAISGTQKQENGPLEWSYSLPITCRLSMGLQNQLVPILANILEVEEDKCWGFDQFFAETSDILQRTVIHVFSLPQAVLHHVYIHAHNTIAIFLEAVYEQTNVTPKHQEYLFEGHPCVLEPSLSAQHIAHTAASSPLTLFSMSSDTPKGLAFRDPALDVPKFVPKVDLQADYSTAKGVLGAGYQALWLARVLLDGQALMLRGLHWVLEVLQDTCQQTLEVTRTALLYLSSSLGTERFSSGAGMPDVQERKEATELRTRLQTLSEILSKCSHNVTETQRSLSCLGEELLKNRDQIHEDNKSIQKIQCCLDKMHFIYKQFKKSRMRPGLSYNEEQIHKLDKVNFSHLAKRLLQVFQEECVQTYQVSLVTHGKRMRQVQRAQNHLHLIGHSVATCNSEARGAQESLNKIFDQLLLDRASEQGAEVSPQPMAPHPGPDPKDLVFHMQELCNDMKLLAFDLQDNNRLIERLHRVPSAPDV
Kind of assay: anti-FLAG immunoprecipitation from cytoplasmic and nuclear fractions of reconstituted MEFs (FIG. 5G). The procedure: Immunoblot, immunoprecipitation and nuclear fractionation: Cell were harvested and lysed on ice in a lysis buffer containing 0.5% Triton X-100, 20 mM Hepes pH 7.4, 150 mM NaCl, 12.5 mM-glycerophosphate, 1.5 mM MgCl2, 10 mM NaF, 2 mM dithiothreitol, 1 mM sodium orthovanadate, 2 mM EGTA, […], and 1 mM phenylmethylsulfonyl fluoride for 20 minutes, followed by centrifuging at 12,000 rpm for 15 minutes to extract clear lysates. For immunoprecipitation, cell lysates were incubated with 1 μg of antibody and A-sepharose beads at 4 degree overnight. After incubation, the beads were washed four times with lysis buffer and the precipitates were eluted with 2× sample buffer. Elutes and whole cell extracts were resolved on SDS-PAGE followed by immunobloting with antibodies. Nuclear fractionation was performed using NUCLEI EZ PREP kit purchased from Sigma in accordance with the manufacturer's instruction. Nuclear pellets were suspended in 30p1 of nuclear extraction buffer (20 mM HEPES, 400 mM NaCl, 1 mM EDTA, 1 mM EGTA in water, pH 7.9) containing freshly prepared 1 mM DTT and protease inhibitor cocktail. After 1.5 h incubation on ice bath with intermittent vortexing, extracts were centrifuged and supernatant was collected for immunoprecipitation.

B1: FLAG-tagged mouse wild-type Act1 (WT) (other, UniProt Q8N7N6 1-555, looked up)
chain: MNRSIPVEVDESEPFPSQLLKPIPEYSPEEELEPPAPNTRNMAPSSLSVLQCPPLKLANHQPVSQQVTCLRAKVLEEGEASFFRRHPELGKDISSCSSGASEPESELGALPPEHRFTLTEKRNRWLGSQLSAASPDTGHESDKSDPSLPNALADSFSGGQEMMPRPRPRPGPHRHRAAPDVPTIDTGYDSQPQDVLGIRQLERPLPLTSSCYLQDLPGPLRSRELPPQFELERYPMNAQLLPPHPSPQAPWNCQYYCPGGPYHHQVPHGHGYPPAAAYQQVLQPALPGQVLPGARARGPRPVQKVILNDSSPQDQEERPAQRDFSFPRLPRDQLYRPPSNGVEAPEESLDLPAELRPHGPQAPSLAAVPRPPSNPLARGTLRTSNLPEELRKVFITYSMDTAMEVVKFVNFLLVNGFQTAIDIFEDRIRGIDIIKWMERYLRDKTVMIIVAISPKYKQDVEGAESQLDEDEHGLHTKYIHRMMQIEFISQGSMNFRFIPVLFPNAKKEHVPTWLQNTHVYSWPKNKKNILLRLLREEEYVAPPRGPLPTLQVVPL
notes: also called flag-tagged mAct1; flag-Act1; not shown: FLAG tag
With B1, the binding result was “binds”.
